These results are taken from paper PMC8908738.

The target of data set [1] is T1, thrombin (UniProt P00734;P00734 328-363;364-622). Description: competitive hybridization, CD of DNA origami chiral plasmonic probe; 170 nM thrombin, n=7-11 bp at aptamer 5' end; R2=0.94 (below the authors' 0.95 validity threshold); Binding buffer, pH and temperature not given in the material shown; origami assembled in TE with 20 mM MgCl2 and 5 mM NaCl; thrombin 170 nM.

For data set [2], the target named is T1, thrombin. Description: competitive hybridization, CD of DNA origami chiral plasmonic probe; 170 nM thrombin, n=7-11 bp at aptamer 3' end; R2=0.97; Binding buffer, pH and temperature not given in the material shown; origami assembled in TE with 20 mM MgCl2 and 5 mM NaCl; thrombin 170 nM.

B1: thrombin DNA aptamer, 5' bridge lock (complement hybridizes at aptamer 5' end) (structured_DNA)
DNA: CTAGCGAGCGAACTTTGGTTGGTGTGGTTGG
Usually Kd stands for the free concentration of one partner at which half of the binding sites on the other are occupied at equilibrium, for simple one-to-one binding. A high value points to a looser complex. Molecule B1 yielded a dissociation constant Kd in data set [1] of 235 nM.

B2: thrombin DNA aptamer, 3' bridge lock (complement hybridizes at aptamer 3' end) (structured_DNA)
DNA: GGTTGGTGTGGTTGGTTTAGAGTGAGCAGAG
B2 gave a dissociation constant Kd in data set [2] of 46.7 nM.
